In the supplement of paper PMC11136658:

Test system: peptide library, one residue held at a place counted from the Y acceptor
Experiment: relative phosphorylation of the sub-library (ratio to the mean residue at this position); higher = residue favoured
Summary of the method: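 Purified recombinant kinases were incubated for 90 min in 384-well plates with biotinylated Tyr-centred peptide library mixtures, each fixing one residue at one position from −5 to +5, plus 50 μM ATP with γ-32P-ATP. Peptides were captured on streptavidin membranes, rinsed and quantified by phosphorimaging and ImageQuant. Intensities were normalized per position by the sum of the 18 (or 16, Ser/Thr-free library) randomized residues and multiplied by that number. Values give phosphorylation relative to the mean randomized residue.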

Chain of EPHA8, construct: aa571-924, human (P29322 571-924, looked up): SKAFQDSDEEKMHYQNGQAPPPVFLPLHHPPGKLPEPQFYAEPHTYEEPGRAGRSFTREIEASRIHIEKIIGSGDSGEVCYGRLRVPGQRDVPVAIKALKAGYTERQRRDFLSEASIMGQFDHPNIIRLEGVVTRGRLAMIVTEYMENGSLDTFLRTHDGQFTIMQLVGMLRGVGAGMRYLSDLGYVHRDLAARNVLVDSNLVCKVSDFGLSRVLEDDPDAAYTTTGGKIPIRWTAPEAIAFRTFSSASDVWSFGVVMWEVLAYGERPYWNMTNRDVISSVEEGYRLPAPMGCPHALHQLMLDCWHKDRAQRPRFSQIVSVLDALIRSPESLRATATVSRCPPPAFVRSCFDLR
Chain of EPHB1, construct: aa613-881, human (P54762 613-881, looked up): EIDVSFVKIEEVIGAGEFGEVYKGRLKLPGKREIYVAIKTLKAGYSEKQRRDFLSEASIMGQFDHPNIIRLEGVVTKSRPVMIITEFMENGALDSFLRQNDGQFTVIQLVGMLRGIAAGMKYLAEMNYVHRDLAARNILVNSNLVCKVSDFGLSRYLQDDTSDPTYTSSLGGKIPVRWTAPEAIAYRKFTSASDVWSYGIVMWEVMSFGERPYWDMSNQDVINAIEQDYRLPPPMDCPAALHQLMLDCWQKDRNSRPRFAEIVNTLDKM

EPHA8, construct: aa571-924, human (from UniProt P29322)
relative phosphorylation
Settings	at +1	at +2	at +3	at +4	at +5	at -1	at -2	at -3	at -4	at -5
A fixed	1.46	0.773	0.757	0.81	1.11	0.454	1.15	0.671	1.11	0.971
D fixed	0.978	1.49	0.359	0.911	1.19	1.98	1.35	1.49	1.48	1.17
E fixed	2.64	1.84	0.346	1.02	1.34	2.03	1.77	2.17	1.74	1.13
F fixed	0.777	1.38	1.62	1.22	0.934	0.855	0.708	1.42	1.07	1.02
G fixed	0.716	0.419	0.572	1.28	1.08	0.242	1.15	0.899	1.18	1.21
H fixed	0.624	0.838	0.819	1.11	1.1	0.672	0.853	1.03	0.87	1.06
I fixed	1.68	0.884	2.9	0.857	0.617	2.9	0.735	0.849	0.845	0.956
K fixed	0.266	0.506	0.32	0.772	0.957	0.249	0.685	0.528	0.715	0.87
L fixed	0.814	0.891	1.71	0.778	0.721	1.54	0.792	0.651	0.901	0.949
M fixed	1.37	0.786	1.23	0.944	0.855	0.698	0.559	0.833	0.843	1.02
N fixed	0.384	1.1	0.453	0.838	0.869	1.92	1.22	1.07	0.96	1.05
P fixed	0.293	0.783	1.11	1.39	1.72	0.391	1.4	0.927	0.974	1.08
Q fixed	1.07	0.823	0.559	0.932	0.897	0.402	1.11	0.813	1.12	0.977
R fixed	0.318	0.723	0.453	1.05	1.14	0.288	0.778	0.688	0.818	0.884
S fixed	0.849	0.886	0.485	0.822	0.943	0.422	1.14	0.958	0.838	0.834
T fixed	0.745	0.855	0.607	0.795	0.96	1.15	0.865	0.837	0.67	0.782
V fixed	1.7	0.914	2.1	0.81	0.644	1.11	0.947	0.728	0.779	0.849
W fixed	1.32	2.12	1.59	1.65	0.932	0.693	0.778	1.44	1.1	1.19
pThr fixed	1.94	2.25	0.437	1.02	1.1	3.17	1.26	1.04	0.986	0.968
pTyr fixed	4.68	7.04	1.16	1.22	1.39	2.63	1.63	1.34	1.37	1.27

EPHB1, construct: aa613-881, human (from UniProt P54762)
relative phosphorylation
Settings	at +1	at +2	at +3	at +4	at +5	at -1	at -2	at -3	at -4	at -5
A fixed	1.86	0.98	0.818	0.902	1.1	0.664	1.16	0.857	0.999	0.906
D fixed	0.907	1.01	0.511	1.08	1.13	2.22	1.09	1.22	1.23	1.15
E fixed	2.33	1.18	0.427	1.04	1.06	1.2	1.27	1.34	1.26	1.01
F fixed	0.676	1.14	1.37	1.06	1.13	1.19	0.677	1.31	1.19	1.07
G fixed	0.571	0.414	0.575	1.03	1.05	0.223	1.23	0.898	1.15	0.979
H fixed	0.566	0.769	1.39	1.18	0.938	0.762	0.888	1.05	0.872	0.934
I fixed	1.67	1.36	2.18	0.773	0.815	2.09	0.872	0.944	0.907	0.956
K fixed	0.212	0.585	0.29	0.744	0.784	0.264	0.946	0.631	0.931	1.05
L fixed	0.823	1.04	1.37	0.828	1.08	1.95	0.914	1.02	1.07	1.11
M fixed	1.48	0.935	1.19	1.07	1.01	0.95	0.689	0.874	0.872	0.926
N fixed	0.383	0.951	0.731	0.806	0.856	1.81	1.05	1.03	0.844	1.13
P fixed	0.195	0.858	0.899	1.29	1.49	0.436	1.33	1.2	1.21	0.947
Q fixed	1.22	0.982	0.849	1.07	0.94	0.423	1.13	0.835	1.19	1.13
R fixed	0.252	0.768	0.419	0.835	0.782	0.29	0.905	0.672	0.9	1.01
S fixed	0.934	0.981	0.691	0.94	0.972	0.519	1.3	0.923	0.722	0.841
T fixed	0.868	1.02	0.848	0.939	0.938	0.968	0.917	0.844	0.667	0.757
V fixed	1.83	1.56	1.95	0.911	0.876	1.24	0.912	0.928	0.854	0.949
W fixed	1.22	1.45	1.49	1.5	1.05	0.811	0.714	1.42	1.14	1.15
pThr fixed	1.9	1.95	0.439	1.03	0.655	1.58	0.851	0.856	0.945	1.02
pTyr fixed	1.56	3.38	0.718	1.1	0.883	1.69	0.936	1.13	1.12	1.25
